Measurements published in paper PMC9515098, “Structural basis for the activity regulation of a potassium channel AKT1 from Arabidopsis” (Nature Communications, 2022).

What was measured:
[1] = target: the molecule itself; experiment: cryo-EM structure; single-particle cryo-EM of the purified channel from Sf9 cells; 25 mM Tris-HCl pH 7.4, 150 mM KCl, 0.1% digitonin
[2] = target: the molecule itself; experiment: cryo-EM structure; single-particle cryo-EM of AKT1 co-expressed with CIPK23 and CBL1 in HEK293 cells; 0.08% digitonin, 0.5 mM CaCl2, 5 mM MnCl2, 1 mM ATP, 1 mM sodium orthovanadate; map at about 11 Å
[3] = target: the molecule itself; experiment: cryo-EM structure; cryo-EM, 2D classification only (preliminary analysis); no map or model reported

B1: Arabidopsis thaliana potassium channel AKT1, wild type (Flag-tagged, from Sf9 cells) (natural protein)
chain: not shown
notes: Potassium channel AKT1, Arabidopsis thaliana, UniProt Q38998; Homotetramer in the cryo-EM structure; also called WT AKT1; AKT1 WT
stoichiometry N [1]: 4

B2: AKT1 Asp379Ala, constitutively-active variant (Flag-tagged, from Sf9 cells) (natural protein)
chain: not shown
notes: Potassium channel AKT1, Arabidopsis thaliana, UniProt Q38998, with the point mutation Asp379Ala; Two cryo-EM classes (4-fold and 2-fold symmetric cytoplasmic domain); also called AKT1-D379A; constitutively-active mutant; source: Sf9 insect cells (Bac-to-bac baculovirus), purified by the same protocol as AKT1
binding result [1]: binds

B3: Phosphorylated AKT1 (AKT1 co-expressed with CIPK23 and CBL1 in HEK293 cells) (natural protein)
chain: not shown
modifications: phosphoserine at Ser26 and Ser338 (found by mass spectrometry after co-expression with CIPK23 and CBL1)
notes: Potassium channel AKT1, Arabidopsis thaliana, UniProt Q38998
binding result [2]: binds

B4: AKT1_(16-857), AKT1 lacking the N-terminal 15 residues (domain or fragment)
chain: not shown
notes: source: purified
binding result [3]: binds
